# Laboratory results from patent US20200338210A1 (ARDEAGEN, published 2020).
# Key:
# human ROR1 on cell lines [1] = target: T1, human ROR1 on cell lines (human, UniProt Q01973 30-937); assay: quantitative flow cytometry on NCI-H226 cells (cell only 1536.32)
# T1 construct: Jeko-1 'bearing the ROR1 antigen'); also called Receptor tyrosine kinase-like orphan receptor 1
# human ROR1 on cell lines [2] = target: T1, human ROR1 on cell lines; assay: quantitative flow cytometry on NCI-H2228 cells (cell only 894.37)
# human ROR1 on cell lines [3] = target: T1, human ROR1 on cell lines; assay: quantitative flow cytometry on NCI-H2228 cells (cell only 633)
# human ROR1 on cell lines [4] = target: T1, human ROR1 on cell lines; assay: quantitative flow cytometry on MDA-MD-231 cells (cell only 942.92)
# human ROR1 on cell lines [5] = target: T1, human ROR1 on cell lines; assay: quantitative flow cytometry on Daudi cells (cell only 328.77)
# human ROR1 on cell lines [6] = target: T1, human ROR1 on cell lines; assay: quantitative flow cytometry on MHCC97H cells (cell only 1099.77)
# human ROR1 on cell lines [7] = target: T1, human ROR1 on cell lines; assay: quantitative flow cytometry on MKN-45 cells (cell only 451)
# human ROR1 on cell lines [8] = target: T1, human ROR1 on cell lines; assay: quantitative flow cytometry on Namalwa cells (cell only 319.84)
# human ROR1 on cell lines [9] = target: T1, human ROR1 on cell lines; assay: quantitative flow cytometry on KATO-III cells (cell only 764)
# human ROR1 on cell lines [10] = target: T1, human ROR1 on cell lines; assay: quantitative flow cytometry on Daudi cells (cell only 229)
# human ROR1 on cell lines [11] = target: T1, human ROR1 on cell lines; assay: quantitative flow cytometry on KATO-III cells (cell only 1075.85)
# human ROR1 on cell lines [12] = target: T1, human ROR1 on cell lines; assay: quantitative flow cytometry on HCCLM3 cells (cell only 1014)
# human ROR1 on cell lines [13] = target: T1, human ROR1 on cell lines; assay: quantitative flow cytometry on MHCC97H cells (cell only 781)
# human ROR1 on cell lines [14] = target: T1, human ROR1 on cell lines; assay: quantitative flow cytometry on MKN-45 cells (cell only 641.4)
# human ROR1 on cell lines [15] = target: T1, human ROR1 on cell lines; assay: quantitative flow cytometry on HCCLM3 cells (cell only 1420.81)
# human ROR1 on cell lines [16] = target: T1, human ROR1 on cell lines; assay: quantitative flow cytometry on NCI-H226 cells (cell only 1097)
# human ROR1 on cell lines [17] = target: T1, human ROR1 on cell lines; assay: quantitative flow cytometry on Jeko-1 cells (cell only 340.33)
# human ROR1 on cell lines [18] = target: T1, human ROR1 on cell lines; assay: quantitative flow cytometry on Namalwa cells (cell only 222)
# human ROR1 on cell lines [19] = target: T1, human ROR1 on cell lines; assay: quantitative flow cytometry on Jeko-1 cells (cell only 237)
# human ROR1 on cell lines [20] = target: T1, human ROR1 on cell lines; assay: quantitative flow cytometry on MDA-MD-231 cells (cell only 668)
# human ROR1 on cell lines [21] = target: T1, human ROR1 on cell lines; assay: flow cytometry on Jeko-1 cells, FITC secondary, surface signal left after 37 C, 2.5 hr T2 (secondary only 215)
# Method: (§1) The following JeKo-1 internalization assay was used. [0179] 1. Harvest Jeko-1 cells (suspension): count and spin down required cell number for experiment in 15 ml falcon tube. Re-suspended in PBS+3% FBS in bulk and aliquoted 100 μl (500,000 cells) per tube. [0180] 2. 2 μg each ADC per tube were added from bulk dilution, incubated 4° C. (on ice) for 1 hour. [0181] 3. 3×wash in 3 ml PBS+3% FBS. Centrifuge set to 1200 RPM for 3 min spin. Carefully decanted and discarded supernatant at each step. Pulse vortexed cell pellets. Left equal volumes in tubes after final wash. [0182] 4. Placed one set of tubes at 37° C. for each Ab tested, included secondary only control set for comparison. T₀=4° C., T₁=37° C. 30 min, T₁=37+ C., […] [0183] 5. After incubation times were complete, removed tubes from incubator and keep on ice until all samples were collected. [0184] 6. Added FITC labelled secondary, incubate on ice 45 min. [0185] 7. 3×wash in 3 ml PBS+3% FBS. Centrifuge set to 1500 RPM for 5 min spin. Carefully decanted and discarded supernatant at each step. Pulse vortexed cell pellets. Left equal volumes in tubes after final wash. [0186] 8. Collected data on instrument
# human ROR1 on cell lines [22] = target: T1, human ROR1 on cell lines; assay: flow cytometry on Jeko-1 cells, FITC secondary, 4 C (on ice) T0 (secondary only 242)
# Method: as §1
# human ROR1 on cell lines [23] = target: T1, human ROR1 on cell lines; assay: flow cytometry on Jeko-1 cells, FITC secondary, surface signal left after 37 C, 30 min T1 (secondary only 216)
# Method: as §1
# [24] = target: T2, ROR1 (target of the KD values in Table 7) (Homo sapiens (Human), UniProt Q01973 30-403, limits assumed); assay: method not stated (Table 7); upper end of the printed range 100-400 pM
# T2 sequence (Q01973 30-403 limits assumed): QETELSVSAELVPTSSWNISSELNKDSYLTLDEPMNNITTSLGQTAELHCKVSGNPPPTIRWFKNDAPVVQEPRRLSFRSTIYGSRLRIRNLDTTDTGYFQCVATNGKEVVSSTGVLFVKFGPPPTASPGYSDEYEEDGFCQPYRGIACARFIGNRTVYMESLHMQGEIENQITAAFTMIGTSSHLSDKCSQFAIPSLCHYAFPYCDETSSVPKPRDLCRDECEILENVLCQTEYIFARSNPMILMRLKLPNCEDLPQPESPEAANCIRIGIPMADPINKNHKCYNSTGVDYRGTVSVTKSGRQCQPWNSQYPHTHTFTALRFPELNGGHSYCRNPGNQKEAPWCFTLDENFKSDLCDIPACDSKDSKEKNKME
# [25] = target: T2, ROR1 (target of the KD values in Table …); assay: method not stated (Table 7); lower end of the printed range 100-400 pM
# T1 sequence (Q01973 30-937 limits assumed): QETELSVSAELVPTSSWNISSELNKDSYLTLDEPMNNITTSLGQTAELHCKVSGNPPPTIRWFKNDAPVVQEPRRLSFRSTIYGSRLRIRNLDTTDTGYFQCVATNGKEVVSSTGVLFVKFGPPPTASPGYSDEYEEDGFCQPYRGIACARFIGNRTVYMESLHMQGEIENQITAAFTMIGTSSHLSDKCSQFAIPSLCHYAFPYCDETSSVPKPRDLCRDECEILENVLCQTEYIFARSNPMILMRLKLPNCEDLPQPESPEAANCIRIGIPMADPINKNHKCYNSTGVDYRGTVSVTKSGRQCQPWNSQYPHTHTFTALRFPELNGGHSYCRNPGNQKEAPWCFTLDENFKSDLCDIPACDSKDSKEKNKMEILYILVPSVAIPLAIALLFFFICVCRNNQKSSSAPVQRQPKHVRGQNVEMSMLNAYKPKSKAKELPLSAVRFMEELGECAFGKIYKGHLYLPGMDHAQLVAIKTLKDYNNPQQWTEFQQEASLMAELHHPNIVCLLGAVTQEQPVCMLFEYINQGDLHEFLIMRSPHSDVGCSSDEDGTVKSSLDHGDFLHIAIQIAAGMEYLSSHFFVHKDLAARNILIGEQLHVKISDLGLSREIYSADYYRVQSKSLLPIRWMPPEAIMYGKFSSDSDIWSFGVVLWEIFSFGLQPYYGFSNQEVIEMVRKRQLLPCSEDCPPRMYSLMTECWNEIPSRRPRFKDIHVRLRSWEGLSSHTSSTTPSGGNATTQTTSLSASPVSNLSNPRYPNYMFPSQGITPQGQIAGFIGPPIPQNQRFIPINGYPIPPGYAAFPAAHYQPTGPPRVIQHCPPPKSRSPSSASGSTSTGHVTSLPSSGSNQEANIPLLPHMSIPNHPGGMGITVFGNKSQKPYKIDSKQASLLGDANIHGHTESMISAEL
molecule,measurement,setting,value
mIgG (antibody),MFI (Geom. mean of FL2),human ROR1 on cell lines [1],1400
same,MFI (Geom. mean of FL2),human ROR1 on cell lines [2],849
same,Ab binding capacity/cell,human ROR1 on cell lines [3],600 per cell
same,MFI (Geom. mean of FL2),human ROR1 on cell lines [4],931
same,MFI (Geom. mean of FL2),human ROR1 on cell lines [5],327
same,MFI (Geom. mean of FL2),human ROR1 on cell lines [6],1070
same,Ab binding capacity/cell,human ROR1 on cell lines [7],464 per cell
same,MFI (Geom. mean of FL2),human ROR1 on cell lines [8],294
same,Ab binding capacity/cell,human ROR1 on cell lines [9],760 per cell
same,Ab binding capacity/cell,human ROR1 on cell lines [10],227 per cell
same,MFI (Geom. mean of FL2),human ROR1 on cell lines [11],1070
same,Ab binding capacity/cell,human ROR1 on cell lines [12],1024 per cell
same,Ab binding capacity/cell,human ROR1 on cell lines [13],757 per cell
same,MFI (Geom. mean of FL2),human ROR1 on cell lines [14],659
same,MFI (Geom. mean of FL2),human ROR1 on cell lines [15],1430
same,Ab binding capacity/cell,human ROR1 on cell lines [16],996 per cell
same,MFI (Geom. mean of FL2),human ROR1 on cell lines [17],338
same,Ab binding capacity/cell,human ROR1 on cell lines [18],204 per cell
same,Ab binding capacity/cell,human ROR1 on cell lines [19],235 per cell
same,Ab binding capacity/cell,human ROR1 on cell lines [20],660 per cell
"2A2-untagged (antibody, V domains shown, also called untagged 2A2) VH: QVQLQQSGAELVRPGASVTLSCKASGYTFSDYEMHWVIQTPVHGLEWIGAIDPETGGTAYNQKFKGKAILTADKSSSTAYMELRSLTSEDSAVYYCTGYYDYDSFTYWGQGTLVTVSA VL: DIVMTQSQKIMSTTVGDRVSITCKASQNVDAAVAWYQQKPGQSPKLLIYSASNRYTGVPDRFTGSGSGTDFTLTISNMQSEDLADYFCQQYDIYPYTFGGGTKLEIK",MFI,human ROR1 on cell lines [21],882
same,MFI,human ROR1 on cell lines [22],1070
same,MFI,human ROR1 on cell lines [23],1070
"2A2-CH1 tag (antibody, V domains shown, tag in CH1 (sequence and position not given), The protocol speaks of 'each ADC', so a payload may be attached; none is named; also called CH1-tagged 2A2) VH: QVQLQQSGAELVRPGASVTLSCKASGYTFSDYEMHWVIQTPVHGLEWIGAIDPETGGTAYNQKFKGKAILTADKSSSTAYMELRSLTSEDSAVYYCTGYYDYDSFTYWGQGTLVTVSA VL: DIVMTQSQKIMSTTVGDRVSITCKASQNVDAAVAWYQQKPGQSPKLLIYSASNRYTGVPDRFTGSGSGTDFTLTISNMQSEDLADYFCQQYDIYPYTFGGGTKLEIK",MFI,human ROR1 on cell lines [21],786
same,MFI,human ROR1 on cell lines [22],1100
same,MFI,human ROR1 on cell lines [23],1050
"Mouse 2A2 Antibody (antibody, mouse IgG1, kappa, V domains shown, also called m2A2; 2A2 anti-ROR1 antibodies) VH: QVQLQQSGAELVRPGASVTLSCKASGYTFSDYEMHWVIQTPVHGLEWIGAIDPETGGTAYNQKFKGKAILTADKSSSTAYMELRSLTSEDSAVYYCTGYYDYDSFTYWGQGTLVTVSA VL: DIVMTQSQKIMSTTVGDRVSITCKASQNVDAAVAWYQQKPGQSPKLLIYSASNRYTGVPDRFTGSGSGTDFTLTISNMQSEDLADYFCQQYDIYPYTFGGGTKLEIKR",Kd,[24],≤ 0.4 nM
same,Kd,[25],≥ 0.1 nM
"2A2-CH1/C-Terminal double tag (antibody, V domains shown, tags in CH1 and at the C-terminus (sequences and positions not given), The protocol speaks of 'each ADC', so a payload may be attached; none is named; also called CH1/CT double-tagged 2A2) VH: QVQLQQSGAELVRPGASVTLSCKASGYTFSDYEMHWVIQTPVHGLEWIGAIDPETGGTAYNQKFKGKAILTADKSSSTAYMELRSLTSEDSAVYYCTGYYDYDSFTYWGQGTLVTVSA VL: DIVMTQSQKIMSTTVGDRVSITCKASQNVDAAVAWYQQKPGQSPKLLIYSASNRYTGVPDRFTGSGSGTDFTLTISNMQSEDLADYFCQQYDIYPYTFGGGTKLEIK",MFI,human ROR1 on cell lines [21],658
same,MFI,human ROR1 on cell lines [22],1100
same,MFI,human ROR1 on cell lines [23],869
"2A2-C-Terminal tag (antibody, V domains shown, C-terminal tag on the antibody (sequence not given), The protocol speaks of 'each ADC', so a payload may be attached; none is named; also called CT-tagged 2A2; C-terminal (CT)-tagged 2A2) VH: QVQLQQSGAELVRPGASVTLSCKASGYTFSDYEMHWVIQTPVHGLEWIGAIDPETGGTAYNQKFKGKAILTADKSSSTAYMELRSLTSEDSAVYYCTGYYDYDSFTYWGQGTLVTVSA VL: DIVMTQSQKIMSTTVGDRVSITCKASQNVDAAVAWYQQKPGQSPKLLIYSASNRYTGVPDRFTGSGSGTDFTLTISNMQSEDLADYFCQQYDIYPYTFGGGTKLEIK",MFI,human ROR1 on cell lines [21],750
same,MFI,human ROR1 on cell lines [22],990
same,MFI,human ROR1 on cell lines [23],959
